Data on 6 molecules can be found in patent US20230203153A1 (CHILDREN S MEDICAL CENTER, published 2023).

In test [1] the target is T1, 'scrambled' (neg. ctrl.) peptide (also: conjugated to BSA).
T1 construct: also called scrambled|BSA peptide
T1 peptide: GFEALGTAIRYPMGQR
Briefly: linear peptide ELISA, BSA-conjugated peptides (20 µM), OD 450 nm (mAb-Iso). An excerpt:
(§1) Specificity for ABCB5 of Ab100. ELISAs run against ABCB5 peptide used to make the antibody was examined. The linear peptide ELISA binding study was a comparative assessment of quantitative binding to ABCB5 linear epitope peptide (3rd extracellular loop) and corresponding peptide segments of homologous (ABCB 1, 4, 11) and orthologous (murine ABCB5) proteins—to assess specificity and/or cross-reactivity (see FIG. 2). […] A primate sequence was not tested as the epitope sequence is identical to the human epitope. A scrambled peptide was used as a negative control. All of the tested peptides are all linear peptides, synthetically created to resemble extracellular loop. The X-axis is the Ab concentration. The Y-axis is the optical density of ELISA (signal representing binding). A non-specific signal with isotype antibody has been subtracted, which is why a non-specific isotype antibody is not shown.
(ELISA stands for enzyme-linked immunosorbent assay.)

The target in test [2] is T2, ABCB4 peptide segment corresponding to the ABCB5 linear epitope peptide (human, UniProt P21439 957-972, limits assumed).
T2 construct: domain: corresponding peptide segment (3rd extracellular loop); also called homologous control peptide
T2 peptide (looked up): RFGAYLIVNGHMRFRD
Described as above.
From the text: as §1

Test [3] has as its target T3, ABCB5 linear epitope peptide (3rd extracellular loop) (human).
T3 construct: Synthetic linear peptide, used at 20 uM in the ELISA; 104; also called ABCB5 peptide; linear peptide
T3 peptide: RFGAYLIQAGRMTPEG
Described as above.
From the text: as §1

Test [4] addresses T4, cyclic (biotinylated) ABCB5 peptide (human, disulfide 1-18).
T4 construct: immobilised at 200 nM on streptavidin-precoated plates; also called cyclic ABCB5 peptide
T4 peptide: Biotin-CRFGAYLIQAGRMTPEGC
The test can be described thus: cyclic biotinylated peptide ELISA (200 nM peptide on streptavidin plates), BSA control subtracted (FIG. 4B).

Test [5] deals with T4, cyclic (biotinylated) ABCB5 peptide. The test can be described thus: cyclic biotinylated peptide ELISA (200 nM peptide on streptavidin plates), no Ab control subtracted (FIG. 4A).
The target is the same in test [6]. The test can be described thus: cyclic biotinylated peptide ELISA (200 nM peptides), curve fit.
Test [7] has the same target. The test can be described thus: cyclic biotinylated peptide ELISA (200 nM peptides), curve fit, OD 450 nm.
Test [8] addresses T5, cyclic 'scrambled' (neg. ctrl.) peptide (disulfide 1-18).
T5 construct: also called cycl. 'scrambled'
T5 peptide: Biotin-CGFEALGTAIRYPMGQRC
Briefly: cyclic biotinylated peptide ELISA (200 nM peptides), OD 450 nm (mAb-average Iso).

Test [9] deals with T1, 'scrambled' (neg. ctrl.) peptide. Briefly: linear peptide ELISA, BSA-conjugated peptides (20 µM), OD 450 nm (mAb-Iso (InVivoPlus+)).
For test [10], the target named is T6, ABCB1 peptide segment corresponding to the ABCB5 linear epitope peptide (human, UniProt P08183 958-973, limits assumed).
T6 construct: domain: corresponding peptide segment (3rd extracellular loop); also called homologous control peptide
T6 peptide (looked up): RFGAYLVAHKLMSFED
Described as above.

Test [11] concerns the target T7, ABCB11 peptide segment corresponding to the ABCB5 linear epitope peptide (human, UniProt O95342 1001-1016, limits assumed).
T7 construct: domain: corresponding peptide segment (3rd extracellular loop); also called homologous control peptide
T7 peptide (looked up): RYGGYLISNEGLHFSY
Described as above.

For test [12], the target named is T3, ABCB5 linear epitope peptide (3rd …). Described as above.
Test [13] addresses T4, cyclic (biotinylated) ABCB5 peptide. Briefly: cyclic biotinylated peptide ELISA (200 nM peptides), broad range of mAb concentrations, curve fit.
The target is the same in test [14]. The test can be described thus: cyclic biotinylated peptide ELISA (200 nM peptides), broad range of mAb concentrations, curve fit, OD 450 nm.
Test [15] shares this target. Briefly: cyclic biotinylated peptide ELISA (200 nM peptides), broad range of mAb concentrations, OD 450 nm (mAb-average Iso).
Test [16] concerns the target T1, 'scrambled' (neg. ctrl.) peptide. The test can be described thus: linear peptide ELISA, BSA-conjugated peptides (20 µM), OD 450 nm (mAb-Iso (InVivoPlus+)).
Test [17] concerns the target T6, ABCB1 peptide segment corresponding to …. The test is described as above.
Test [18] concerns the target T7, ABCB11 peptide segment corresponding to …. The test is described as above.
Test [19] addresses T3, ABCB5 linear epitope peptide (3rd …). The description is as above.

What is called Kd is the free concentration of one partner at which half of the binding sites on the other are occupied at equilibrium, for simple one-to-one binding. Low readings indicate tighter binding, high ones weaker binding. Usually EC50 (read off the curve) stands for the concentration that produces a half-maximal response. Higher therefore signals weaker potency.

“And” between values parts separate entries of the source, which are not always exact repeats. Identical values can stand only once. Like-named read-outs stand apart in the source and are kept apart here. Bridge positions count the residues as written; N and C are the ends. Ends that are not written are not given here. * marks the point of attachment. Biotin = O=C1N[C@H]2[C@H](CS[C@H]2CCCCC(=O)*)N1

B1: ABCB5-Ab100 (antibody, human IgG1, kappa, V domains shown)
VH: EVQLVESGGGLVQPGGSLRLSCAASGFTFSSYSMNWVRQAPGKGLEWVSYISSSSSTIYYADSVKGRFTISRDNAKNSLYLQMNSLRDEDTAVYYCASNYQYGDYGGYWGRGTLVTVSS
VL: AIQLTQSPSSLTGSVGDRVTITCQASHDISNFLNWYQQKPGQAPKLLIYDAYNLQTGVPSRFSGTGSGTHFTLTINSLQPEDVGTYFCQQYDYFLSITFGQGTRLEIKR
As for B1, the figures for the binding result in test [1], in [2] and in test [3] were “no binding (tested: 50 µg/mL)”, “no binding (tested: 50 µg/mL)” and “binds”, respectively. Besides, the Kd in [4] was 6.16 µg/mL and 41.3 nM; in [5], 4.93 µg/mL and 33.1 nM.

B2: ABCB5-Ab101 (antibody, human IgG1, kappa, V domains shown)
VH: QVQLVQSGAEVKKPGASVKVSCKASGYTFTSYYMHWVRQAPGQGLEWMGIINPSGGSTSYAQKFQGRVTMTRDTSTSTVYMELSSLRSEDTAVYYCARDQAVTGTAYYYYYGMDVWGQGTTVTVSS
VL: EIVLTQSPGTLSLSPGERATLSCRASQSVNSNYLAWYQQKPGQAPRLLIYGTSSRATGIPDSFSGSGSGTDFTLTISRLEPEDFAVYYCQQFGSSPLTFGGGTKVEIKR
notes: Fully human monoclonal IgG1 kappa
On to B2, for which the Kd was 0.0283 µg/mL and 0.19 nM in test [6]; 0.039 µg/mL and 0.261 nM in test [13]. Also, the results for the Bmax in [7] and in test [14] were 3.33 and 3.83, respectively. The binding result in test [8] is listed as “no binding (tested: 1 µg/ml)”; in test [9], “no binding (tested: 50 µg/ml)”; in [10], “no binding (tested: 50 µg/ml)”; in [11] it was “no binding (tested: 50 µg/ml)”; in test [12], “binds”. In [15], the “EC50 (read off the curve)” value is ~0.04 µg/mL.

B3: ABCB5-Ab43 (antibody, V domains shown)
VH: QVQLVQSGAEVKKPGASVKVSCKASGYTFTSYYMHWVRQSPGQGLEWMGIINPSGGSTSYAQKFQGRVTMTRDTSTSTVYMELSSLRSEDTAVYYCARDQAVTGTAYYYYYGMDVWGQGTTVTVSS
VL: EIVLTQSPGTLSLSPGERATLSCRASQSVNSKYLAWYQQKPGQAPRLLIYGTSSRATGIPDSFSGSGSGTDFTLTISRLEPEDFAVYYCQQFGSSPLTFGGGTKVEIK
Turning to B3, the Kd was 0.0204 µg/mL and 0.137 nM in test [6]; 0.0345 µg/mL and 0.231 nM in test [13]. Further, the results for the Bmax in [7] and in test [14] were 3.24 and 3.77, respectively. The binding result in test [8] was “no binding (tested: 1 µg/ml)”; in test [16] it was “no binding (tested: 50 µg/ml)”; in test [17], “no binding (tested: 50 µg/ml)”; in test [18], “no binding (tested: 50 µg/ml)”; in test [19], “binds”. Besides, the “EC50 (read off the curve)” value in test [15] is ~0.04 µg/mL.

B4: ABCB5-Ab42 (antibody, V domains shown)
VH: QVQLVQSGAEVKKPGASVKVSCKTSGYTFTSYYMHWVRQSPGQGLEWMGIINPSGGSTSYAQKFQGRVTMTRDTSTSTVYMELSSLRSEDTAVYYCARDQAVTGTAYYYYYGMDVWGQGTTVTVSS
VL: EIVLTQSPGTLSLSPGERATLSCRASLSVNSNYLAWYQQKPGQAPRLLIYGTSSRATGIPDSFSGSGSGTDFTLTISRLEPEDFAVYYCQQFGSSPLTFGGGTKVEIK
notes: detection was with an anti-human secondary antibody
For B4, the Kd in test [6] is 0.0222 µg/mL and 0.149 nM; in test [13] it was 0.0471 µg/mL and 0.316 nM. Also, the Bmax came out at 3.17 in test [7] and 4.09 in [14]. For the same molecule, the binding result in test [8] is reported as “no binding (tested: 1 µg/ml)”; in test [16], “no binding (tested: 50 µg/ml)”; in test [17] it was “no binding (tested: 50 µg/ml)”; in test [18] it was “no binding (tested: 50 µg/ml)”; in test [19], “binds”. Further, the “EC50 (read off the curve)” value in test [15] was ~0.04 µg/mL.

B5: ABCB5-Ab45 (antibody, V domains shown)
VH: QVQLVQSGAEVKKPGASVKVSCKASGYTFTNYYMHWVRQAPGQGPEWMGIINPSGGSTSYAQKFQGRVTMTRDTSTSTVYMELSSLRSEDTAVYYCARDLAVTGTAYYYYYGMDVWGQGTTVTVSS
VL: EFVLTQSPGTLSLSPGERATLSCRASQSVNSNYLAWYQQKPGQAPRLLIYGTSSRATGIPDSFSGSGSGTDFTLTISRLEPEDFAVYYCQQFGSSPLTFGGGTKVEIK
As to B5, the Kd in test [6] was 0.00456 µg/mL and 0.0306 nM; in test [13], 0.0205 µg/mL and 0.138 nM. In addition, the Bmax came to 3.2 in test [7] and 3.71 in test [14]. The binding result in test [8] is given as “no binding (tested: 1 µg/ml)”; in test [16] it was “no binding (tested: 50 µg/ml)”; in test [17], “no binding (tested: 50 µg/ml)”; in [18], “no binding (tested: 50 µg/ml)”; in [19], “binds”. Further, the “EC50 (read off the curve)” value in test [15] is ~0.02 µg/mL.

B6: ABCB5-Ab44 (antibody, V domains shown)
VH: QVQLVQSGAEVKKPGASVKVSCKASGYTFTSYYMHWVRQAPGQGLEWMGIINPSGGSTSYAQKFKGRVTMTRDTSTSTVYMELSSLRSEDTAVYYCARDQAVTGTAYYYYYGMDVWGQGTTVTVSS
VL: EIVLTQSPGTLSLSPGERATLSCRASQSVNSNYLAWYQQKPGQAPRLLIYGTSSRATGIPDSFSGSGSGTDFTLTISRLEPEDFAVYYCQQFGSSPLTFGGGTKVEIK
notes: also called A44; F01
In the case of B6, the Kd in test [6] is 0.00917 µg/mL and 0.0615 nM; in test [13], 0.0335 µg/mL and 0.225 nM. In addition, the Bmax in [7] is 3.23; in [14], 3.99. Besides, the binding result in [8] was “no binding (tested: 1 µg/ml)”; in test [16], “no binding (tested: 50 µg/ml)”; in test [17], “no binding (tested: 50 µg/ml)”; in test [18] it was “no binding (tested: 50 µg/ml)”; in test [19] it was “binds”. Moreover, the “EC50 (read off the curve)” value in test [15] was ~0.04 µg/mL.
